Measured values reported in patent US20170051021A1, “PEPTIDE AGONISTS OF TOLL-LIKE RECEPTOR 5 LIGAND AND METHOD OF USE” (priority 2014, published 2017).

How the values were obtained:
NF-kB = NF-kB reporter system luciferase assay in transiently transfected CACO-2 cells; assay type: cell-based; conditions: CACO-2 cells transfected with mock vector delta NFkB-Luc
Experimental: All transfections were performed in triplicate in 24-well plates. Approximately 2×10^5 CACO-2 cells per well were seeded 24 h before transfection. Following the manufacturer's instructions, plasmids were transfected into cells using FUGENE transfection reagent (Promega, Medison, Wis.). Briefly, 0.8 μg of reporter plasmids carrying different NF-kB responsive elements (IL8-Luc, IGkB-Luc) plus 0.05 μg of pCMV-LacZ vector were diluted with Opti-MEM and then mixed with diluted liposomes. After 20 min of incubation at room temperature, the mixtures were added to each well. […] Each experiment was conducted a minimum of three times.

Wistar rats = assay: In vivo protective role against lethal irradiation, survival of Wistar rats; set-up: species or system rat; conditions: 0.1 mg/kg s.c. one hour before single total dose of 9.6 Gy, FIG. 16
Experimental: One hour later, rats were irradiated for about 30 min with a single total dose of 9.6 Gy and survival was monitored daily (FIG. 16).

B1: VINCRO1 (protein)
chain: LTIQVGANDGETIDIDLKQINSQTLSSSGSSGSSGSSIDAALAQVDALRSDLGAVQNRFNSA
modifications: left off: small tags and cut ends
- luciferase activity with mock vector (specificity control) (NF-kB): no luciferase activity
- protection from lethal irradiation (survival) (Wistar rats): protect Wistar rats from lethal irradiation
